In patent US20250122539A1, “LARGE SCALE PRODUCTION OF DIVARIN, DIVARINIC ACID AND OTHER ALKYL RESORCINOLS BY FERMENTATION” (priority 2021, published 2025):

Experiments:
[1] = Partitioning of olivetolic acid between organic overlay and aqueous culture phase (shake flask, HPLC); format: physicochemical; conditions: YP + 2% galactose culture
Method: Precultures of LSC3-2 and LSC3-18 were inoculated from YPD streak plates and grown in 30 ml of YP+2% (w/v) glucose in baffled 250 ml shake flasks for approximately 18 hours overnight at 30° C. with 200 rpm shaking. Baffled 250 ml shake flasks containing 30 mL of YP+2% (w/v) galactose, 5 mL of IPM or diethyl sebacate, and 0.04% (w/v) hexanoic acid, were inoculated with 1 mL of preculture and grown for at 30° C. with 200 rpm shaking. After 24 and 48 hours, samples of cell culture broth plus overlay were sampled into microcentrifuge tubes and stored at −20° C. at least overnight. Sample tubes were thawed and aqueous sample and overlay sample were pipetted into plates for HPLC analysis. Overlay samples were diluted 1:1 v/v with methanol in the HPLC plate prior to analysis.
Total olivetol equivalents are defined as the concentration of olivetol in mg/L, plus the concentration of olivetolic acid in mg/L multiplied by the ratio of the molecular weight of olivetol to olivetolic acid.

[2] = Partitioning of divarinic acid and divarin into organic solvent overlays (96 well deepwell plate, HPLC); format: physicochemical; conditions: compared with olivetolic acid and olivetol
Method: Several monoester and one diester overlay candidate were compared to IPM for production of divarinic acid and divarin. LSC3-13 precultures were inoculated from YPD streak plates and grown in 300 μL Delft medium+0.79 g/L complete supplement mixture (CSM) (ForMedium, Norfolk, UK)+2% (w/v) glucose in round-bottom square well 96 well deepwell plates for approximately 18 hours overnight at 30° C. with 950 rpm shaking in an Infors plate shaker. 96 well deepwell plate wells containing 300 μL of Delft medium+CSM+2% (w/v) glucose, 60 μL of different overlay solvents, and 0.08% (w/v) butyric acid, were inoculated with 10 μL of preculture and grown for 30° C. with 950 rpm shaking. After 48 hours, the aqueous layer and overlay were sampled on a Bravo automated liquid handling platform (Agilent) and samples from the aqueous and organic overlay phases were subjected to HPLC analysis to measure divarinic acid and divarin production.

[3] = system: hexanoic acid; assay: Two plasmid screening system for relative AAE activity, hexanoic acid feeding; format: cell-based, Saccharomyces cerevisiae; conditions: average production, LSC3-297/pLOA-049 plus AAE plasmid, Delft medium pH 6.5, 3.44 mM hexanoic acid, 48 hours
Source text: (§1) In order to perform in vivo screening in Saccharomyces cerevisiae for acyl activating enzyme (AAE) variants with enhanced activity and/or expression, a two plasmid screening system was employed to generate an artificial bottleneck in AAE activity. This bottleneck was generated by natural copy number variation of the two plasmids, with a multi-copy 2 micron episomal plasmid, pLOA-049, harboring an olivetol synthase homologue from C. sativa (CsTKS) fused with a T2A self-cleaving peptide (Kearsey et al., FEBS J. 287:1511-1524, 2020) to a gene encoding olivetol acid cyclase from C. sativa (CsOAC), and a lower copy centromeric plasmid with an autonomous replicating sequence (CEN/ARS) harboring different acyl activating enzymes/acyl-CoA synthetases from different organisms. Markers employed on the 2 micron plasmid were orotidine-5′-phosphate decarboxylase from S. cerevisiae (URA3) and on the CEN/ARS plasmid, the multifunctional histidine biosynthesis gene HIS4 from S. cerevisiae. The cassette architecture in the plasmids was based on integrated cassettes in production strain LSC3-2, with a pGAL1-10 bidirectional promoter driving expression of CsTKS and CsOAC from pGAL1 with a S. cerevisiae CYC1 terminator, and insulated downstream of pGAL10 by a S. cerevisiae GRE3 terminator. Likewise on the CEN/ARS plasmid, a bidirectional pGAL1-10 promoter drives expression of CsAAE1 from pGAL10 with a S. cerevisiae GRE3 terminator, and is insulated downstream of pGAL1 by a S. cerevisiae CYC1 terminator.
(§2) To screen activity of AAE variants, first a CEN/ARS containing plasmid expressing AAEs co-transformed with the 2 micron plasmid expressing CsTKS translationally fused to CsOAC via the T2A self-cleaving peptide into strain LSC3-297 using the transformation method described by Gietz and Schiestl (Nat. Protocols 2:31-34, 2007). Double plasmid transformants were selected on YNB agar with 2% (w/v) glucose and CSM minus histidine and minus uracil (CSM-His-Ura, Sunrise Science Products) and grown in a 30° C. incubator for approximately 48 hours or at room temperature for approximately 72 hours. Individual colonies were picked into wells of 96 deepwell plates containing 0.3 mL per well of Delft medium with 2% (w/v) glucose and 0.75 g/L CSM-His-Ura. Delft medium base contains (per liter solution) 7.5 g ammonium sulfate, 14.4 g potassium phosphate monobasic (added from a 1 M stock solution adjusted to pH 6.5 with sodium hydroxide), 0.5 g magnesium sulfate heptahydrate, 3.6 mL of a trace metal solution (consisting of 130 g/L citric acid monohydrate, 0.574 g/L copper (II) sulfate pentahydrate, 8.07 g/L iron (III) chloride hexahydrate, 0.5 g/L boric acid, 0.333 g/L manganese (II) chloride, 0.2 g/L sodium molybdate, and 4.67 g/L zinc sulfate heptahydrate), and 1.0 ml of a vitamin solution (0.008 g/L biotin, 1.6 g/L calcium pantothenate, 0.008 g/L folic acid, 8 g/L myo-inositol, 1.6 g/L nicotinic acid, 0.8 g/L p-aminobenzoic acid, 1.6 g/L pyridoxal hydrochloride, 0.8 g/L riboflavin, 1.6 g/L thiamine hydrochloride, adjusted to pH […] with sodium hydroxide). Plates were grown for 16-24 hours at 30° C. in a plate shaker incubator maintained at 80% relative humidity and 900 rpm shaking (3 mm diameter throw). Ten microliters of preculture was then used to inoculate wells of 96 deepwell plates containing 0.3 mL per well of Delft medium with 2% (w/v) glucose, 0.75 g/L CSM-His-Ura, either 9.08 mM butyric acid or 3.44 mM hexanoic acid, and for divarin/divarinic acid, additionally 150 mM 2-(N-morpholino) ethanesulfonic acid (MES) at pH 5.5 and with the additional modification of the 1 M potassium phosphate monobasic stock in the Delft medium base also adjusted to pH 5.5 (for olivetol/olivetolic acid production from hexanoic acid, no MES was added and potassium phosphate monobasic solution used in the Delft medium base was at pH 6.5). […]

[4] = system: butyric acid; assay: Two plasmid screening system for relative AAE activity, butyric acid feeding; format: cell-based, Saccharomyces cerevisiae
Source text: as §1, §2

[5] = average production, LSC3-297/pLOA-049 plus AAE plasmid, Delft medium pH 5.5 with 150 mM MES, 9.08 mM butyric acid, 48 hours

CCCCCc1cc(O)cc(O)c1C(=O)O [OA, olivetolic acid]
partitioning between overlay and aqueous phase ([1]; IPM overlay): partitioned between the IPM and aqueous phases | partitioning between overlay and aqueous phase ([1]; diethyl sebacate overlay): entirely partitioned into diethyl sebacate

CCCc1cc(O)cc(O)c1 [divarin, 1,3-dihydroxy-5-propylbenzene]
partitioning into monoester overlays [2]: partition less effectively

CCCc1cc(O)cc(O)c1C(=O)O [divarinic acid, 2,4-dihydroxy-6-propylbenzoic acid]
partitioning into monoester overlays [2]: partition less effectively

B1: At4CLL6: 4-coumarate--CoA ligase-like 6 from Arabidopsis thaliana (Uniprot Q84P24), SEQ ID NO: 11 (protein, listed as Arabidopsis thaliana)
chain: MAATHLHIPPNPKTQTSHQNPPFWFSSKTGIYTSKFPSLHLPVDPNLDAVSALFSHKHHGDTALIDSLTGFSISHTELQIMVQSMAAGIYHVLGVRQGDVVSLVLPNSVYFPMIFLSLISLGAIVTTMNPSSSLGEIKKQVSECSVGLAFTSTENVEKLSSLGVSVISVSESYDFDSIRIENPKFYSIMKESFGFVPKPLIKQDDVAAIMYSSGTTGASKGVLLTHRNLIASMELFVRFEASQYEYPGSSNVYLAALPLCHIYGLSLFVMGLLSLGSTIVVMKRFDASDVVNVIERFKITHFPVVPPMLMALTKKAKGVCGEVFKSLKQVSSGAAPLSRKFIEDFLQTLPHVDLIQGYGMTESTAVGTRGFNSEKLSRYSSVGLLAPNMQAKVVDWSSGSFLPPGNRGELWIQGPGVMKGYLNNPKATQMSIVEDSWLRTGDIAYFDEDGYLFIVDRIKEIIKYKGFQIAPADLEAVLVSHPLIIDAAVTAAPNEECGEIPVAFVVRRQETTLSEEDVISYVASQVAPYRKVRKVVMVNSIPKSPTGKILRKELKRILTNSVS
Olivetol [3]: 0.86 mg/L | Olivetolic acid [3]: 0.91 mg/L | Divarin [4, 5]: 5.96 mg/L | Divarinic acid [4, 5]: 5.24 mg/L | activity as butyryl-CoA synthetases for divarin and divarinic acid production ([4]; over CsAAE1): several-fold activity improvements
